T1: VAMP7 longin domain (UniProt P70280 1-120)
T1 chain: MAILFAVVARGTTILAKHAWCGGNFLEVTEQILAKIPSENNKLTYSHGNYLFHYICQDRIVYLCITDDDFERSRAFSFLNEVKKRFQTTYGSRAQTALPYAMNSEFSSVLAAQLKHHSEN

T2: VAMP7 longin domain (UniProt P70280 1-120)
T2 construct: VAMP7 (Ti-VAMP), longin domain; also called VAMP7LD; VAMP longin domain
T2 sequence (looked up): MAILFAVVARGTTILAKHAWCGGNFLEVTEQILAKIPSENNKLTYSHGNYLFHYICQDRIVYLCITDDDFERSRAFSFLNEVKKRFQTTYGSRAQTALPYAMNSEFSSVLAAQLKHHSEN


Assays:
VAMP7 longin domain [1] = biological target: T1, VAMP7 longin domain; assay: ITC
VAMP7 longin domain [2] = biological target: T2, VAMP7 longin domain; assay: ITC; Microcal Auto-iTC200; VAMP7 longin domain in the cell at 0.15–0.2 mM, GST delta constructs at 0.8–1.2 mM titrated; 50 mM HEPES pH 7.4, 200 mM NaCl, 4 mM ß-mercaptoethanol; details: both partners purified
[3] = biological target: VAMP7 longin domain L43S/Y45S (UniProt P70280 1-120, L43S | Y45S); assay: ITC

| Kd (VAMP7 longin domain [1]) [µM] | Kd (VAMP7 longin domain [2]) [µM] | Kd [3] [µM] | Binder |
| --- | --- | --- | --- |
| > 300 | – | – | PFYIKSSPSPQKRYQDTPGVEHSPSVQIDLSVPLKVPGLPMSDQYVKLE (domain or fragment) [GST δ-adaptin (680–728) I702S/V704S] |
| > 300 | – | – | PFYIKSSPSPQKRYQDTPGVEHIPVVQIDSSVPSKVPGLPMSDQYVKLE (domain or fragment) [GST δ-adaptin (680–728) L709S/L713S] |
| – | 14 | > 300 | PFYIKSSPSPQKRYQDTPGVEHIPVVQIDLSVPLKVPGLPMSDQYVKLE (domain or fragment, UniProt O14617-5 680-728, looked up, source: Rosetta2(DE3)pLysS, purified (glutathione-Sepharose, Superdex 75)) [GST δ-adaptin (680–728)] |

Source: paper PMC3549491, “Structural Basis of the Intracellular Sorting of the SNARE VAMP7 by the AP3 Adaptor Complex” (Developmental Cell, 2012)
